{
  "source": "paper PMC3656090",
  "about": "(PLoS Pathogens, 2013)",
  "biological_target": "T1, synthetic peptide comprising the epitope II region (residues 434-446) of HCV E2, strain H77 (Hepatitis C virus, strain H77)",
  "T1 chain": "NTGWLAGLFYQHK",
  "experiment": "crystal structure; Fab 10 mg/ml + epitope II peptide (0.9 mg/ml for HC84-1, 1.5 mg/ml for HC84-27), complex formed overnight at 277 K; crystals at 293 K, hanging drop, 10 mM TRIS pH 8.0, 150 mM NaCl",
  "settings": "both partners purified",
  "data": [
    {"binder": "Fab fragment of human monoclonal antibody HC84-27 (Fab, V domains shown) VH: QVTLKESGAEVKKPGSSVKVSCEASGGTLSNYVITWVRQAPGQGLEWMGGFIPTFRTAMYAQGFQGRVTITADESTSIAYMELTNLRSEDTAVYYCARGPLSRGYYDYWGQGTLVTVSS VL: SYVLTQPPSVSVSPGQTARITCSGDKLGDKYASWYQQKPGQSPVLVIYQDNKRPSEIPARFSGSNSGNTATLTISGAQAMDEADYYCQAWDSNTGVFGTGTKLTVL", "values": [
      {"measurement": "binding result", "value": "binds"}
    ]}
  ]
}
